The results in this text go back to patent publication US20230331809A1.

For this assay, the target named is CD40 (Cluster of Differentiation 40) on cells (UniProt P25942).
Chain of CD40 (Cluster of Differentiation 40) on cells (P25942 21-277 limits assumed): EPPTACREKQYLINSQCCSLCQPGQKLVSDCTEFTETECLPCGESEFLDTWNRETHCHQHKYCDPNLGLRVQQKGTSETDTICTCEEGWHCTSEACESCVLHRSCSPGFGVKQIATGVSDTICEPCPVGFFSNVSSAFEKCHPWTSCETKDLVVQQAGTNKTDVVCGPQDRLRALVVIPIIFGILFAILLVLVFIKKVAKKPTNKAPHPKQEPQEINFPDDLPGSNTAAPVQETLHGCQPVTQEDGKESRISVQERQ

Chain of CD40L (Invivogen), native CD40 binding partner (P29965 113-261 limits assumed): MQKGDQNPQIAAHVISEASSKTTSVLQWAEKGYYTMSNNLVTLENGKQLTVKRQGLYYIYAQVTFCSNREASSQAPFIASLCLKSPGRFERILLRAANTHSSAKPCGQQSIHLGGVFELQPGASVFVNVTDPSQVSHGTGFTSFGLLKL

Substance “CD40L (Invivogen), native CD40 binding partner (from UniProt P29965 113-261) (ligand)” yielded an EC50, CD40 RGA, FcgRIIB CHOK1 of 0.81 µg/mL; an EC50, CD40 RGA, HEK Blue only of 0.43 µg/mL; an EC50, CD40 RGA, WT CHOK1 of 0.44 µg/mL; a Fold wrt WT (EC50, relative to v32477 - uPa), CD40 RGA, FcgRIIB CHOK1 of 16.6 fold. This substance yielded a Fold wrt WT (EC50, relative to v32477 - uPa), CD40 RGA, HEK Blue only of 2.76 fold and a Fold wrt WT (EC50, relative to v32477 - uPa), CD40 RGA, WT CHOK1 of 3.19 fold.
